Assay results reported in paper PMC9825174.

Assays:
Experiment in all cases: EMSA
[1] = biological target: AAG D80 EQ (catalytically dead) E125Q (UniProt P29372); settings: 60 nM AAG D80 EQ, 8 nM DNA, text says THF, legend says ϵdA37, N20 of strand 1 = 1,N6-ethenoadenine (opposite T), EMSA: 20 mM HEPES pH 7.5, 150 mM NaCl, 2 mM DTT (5 mM in AAG native PAGE), 5% glycerol, 0.5 mg/ml BSA, room temperature 20-30 min, 5% native gel at …
[2] = biological target: UV-DDB (DDB1-DDB2 heterodimer) (UniProt Q16531+Q92466); settings: EMSA: 20 mM HEPES pH 7.5, 150 mM NaCl, 2 mM DTT (5 mM in AAG native PAGE), 5% glycerol, 0.5 mg/ml BSA, 8 nM DNA, room temperature 20-30 min, 5% native gel at …
Chain of UniProt Q16531 (Q16531 whole entry, chain 1 of 2): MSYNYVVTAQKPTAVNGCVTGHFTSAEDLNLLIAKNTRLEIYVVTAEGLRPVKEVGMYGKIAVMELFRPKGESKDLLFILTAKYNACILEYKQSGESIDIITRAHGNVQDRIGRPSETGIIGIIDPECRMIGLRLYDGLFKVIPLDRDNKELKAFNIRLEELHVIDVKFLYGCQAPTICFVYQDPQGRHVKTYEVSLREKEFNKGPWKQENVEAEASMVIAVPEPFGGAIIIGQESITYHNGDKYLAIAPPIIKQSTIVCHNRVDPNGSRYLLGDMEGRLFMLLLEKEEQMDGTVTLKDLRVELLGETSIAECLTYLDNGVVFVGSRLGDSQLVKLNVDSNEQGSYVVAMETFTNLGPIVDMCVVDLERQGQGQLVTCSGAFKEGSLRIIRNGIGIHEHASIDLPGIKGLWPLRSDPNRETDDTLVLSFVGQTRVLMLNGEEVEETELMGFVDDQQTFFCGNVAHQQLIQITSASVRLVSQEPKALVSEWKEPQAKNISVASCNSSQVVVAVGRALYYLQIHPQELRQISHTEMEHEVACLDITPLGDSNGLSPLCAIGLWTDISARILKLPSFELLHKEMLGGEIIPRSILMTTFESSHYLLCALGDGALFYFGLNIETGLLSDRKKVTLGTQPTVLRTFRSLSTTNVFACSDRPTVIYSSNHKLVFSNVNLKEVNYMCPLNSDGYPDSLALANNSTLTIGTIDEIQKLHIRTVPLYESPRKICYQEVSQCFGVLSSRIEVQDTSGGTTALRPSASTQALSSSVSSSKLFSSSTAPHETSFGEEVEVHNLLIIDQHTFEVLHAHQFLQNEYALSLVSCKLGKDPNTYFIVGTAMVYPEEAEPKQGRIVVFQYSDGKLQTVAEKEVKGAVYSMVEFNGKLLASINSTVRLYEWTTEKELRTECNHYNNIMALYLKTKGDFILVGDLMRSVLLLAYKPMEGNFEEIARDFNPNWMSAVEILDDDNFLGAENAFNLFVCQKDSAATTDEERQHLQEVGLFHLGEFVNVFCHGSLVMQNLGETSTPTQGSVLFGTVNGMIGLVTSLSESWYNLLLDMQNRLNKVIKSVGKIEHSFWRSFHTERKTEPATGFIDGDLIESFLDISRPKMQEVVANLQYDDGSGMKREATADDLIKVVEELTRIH
Chain of UniProt Q16531 (Q92466 whole entry, chain 2 of 2): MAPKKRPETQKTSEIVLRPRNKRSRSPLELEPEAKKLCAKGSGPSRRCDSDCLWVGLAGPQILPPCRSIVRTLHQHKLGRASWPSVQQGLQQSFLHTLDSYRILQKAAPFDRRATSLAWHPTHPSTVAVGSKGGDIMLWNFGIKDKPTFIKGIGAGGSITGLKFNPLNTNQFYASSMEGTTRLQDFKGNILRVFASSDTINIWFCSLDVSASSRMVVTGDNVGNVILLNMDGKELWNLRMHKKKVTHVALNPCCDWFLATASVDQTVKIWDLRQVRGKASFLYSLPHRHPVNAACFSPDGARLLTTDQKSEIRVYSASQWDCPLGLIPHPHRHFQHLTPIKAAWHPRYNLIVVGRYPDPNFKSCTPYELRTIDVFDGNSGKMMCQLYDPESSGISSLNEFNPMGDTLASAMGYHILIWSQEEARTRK

[3] = biological target: AAG WT (MPG) (UniProt P29372); settings: 60 nM AAG, 8 nM DNA, N20 of strand 1 = tetrahydrofuran abasic analogue (opposite T), EMSA: 20 mM HEPES pH 7.5, 150 mM NaCl, 2 mM DTT (5 mM in AAG native PAGE), 5% glycerol, 0.5 mg/ml BSA, room temperature 20-30 min, 5% native gel at …

CCGAGTCATTCCTGCAGCGNGTCCATGGGAGTCAAAT / ATTTGACTCCCATGGACTCGCTGCAGGAATGACTCGG [ϵdA37 (ϵA:T)]
binding signal [1]: > 85 % DNA bound
Kd ([2]; N20 of strand 1 = 1,N6-ethenoadenine (opposite T)): 6 nM

undamaged 37 bp duplex (UD)
Kd ([2]; no Mg2+, varies with preparation (32-42 nM)): 31.8 nM

CCGAGTCATTCCTGCAGCGNGTCCATGGGAGTCAAAT / ATTTGACTCCCATGGACTCGCTGCAGGAATGACTCGG [Hx37 (Hx:T)]
Kd ([2]; N20 of strand 1 = hypoxanthine (deoxyinosine, opposite T)): 8.6 nM

CCGAGTCATTCCTGCAGCGNGTCCATGGGAGTCAAAT / ATTTGACTCCCATGGACTCGCTGCAGGAATGACTCGG [THF37]
binding signal [3]: > 85 % DNA bound
Kd ([2]; N20 of strand 1 = tetrahydrofuran abasic analogue (opposite T)): 1.8 nM
